{
  "source": "patent US20250289897A1",
  "about": "“LEPTIN RECEPTOR AGONISTIC ANTIBODY AS MONO OR COMBO THERAPIES TO TREAT OBESITY” (ELI LILLY AND COMPANY, priority 2024, published 2025)",
  "molecular_target": "T1, human LEPR (Homo sapiens, UniProt P48357)",
  "T1 construct": "introducing DNA plasmids encoding full-length LEPR of different species and STAT3-luciferase reporter gene into HEK293 cells; expressed in transfected cells; host or cells: HEK293 (HEK293-STAT3Luc-hLepR1)",
  "T1 sequence (P48357 22-1165)": "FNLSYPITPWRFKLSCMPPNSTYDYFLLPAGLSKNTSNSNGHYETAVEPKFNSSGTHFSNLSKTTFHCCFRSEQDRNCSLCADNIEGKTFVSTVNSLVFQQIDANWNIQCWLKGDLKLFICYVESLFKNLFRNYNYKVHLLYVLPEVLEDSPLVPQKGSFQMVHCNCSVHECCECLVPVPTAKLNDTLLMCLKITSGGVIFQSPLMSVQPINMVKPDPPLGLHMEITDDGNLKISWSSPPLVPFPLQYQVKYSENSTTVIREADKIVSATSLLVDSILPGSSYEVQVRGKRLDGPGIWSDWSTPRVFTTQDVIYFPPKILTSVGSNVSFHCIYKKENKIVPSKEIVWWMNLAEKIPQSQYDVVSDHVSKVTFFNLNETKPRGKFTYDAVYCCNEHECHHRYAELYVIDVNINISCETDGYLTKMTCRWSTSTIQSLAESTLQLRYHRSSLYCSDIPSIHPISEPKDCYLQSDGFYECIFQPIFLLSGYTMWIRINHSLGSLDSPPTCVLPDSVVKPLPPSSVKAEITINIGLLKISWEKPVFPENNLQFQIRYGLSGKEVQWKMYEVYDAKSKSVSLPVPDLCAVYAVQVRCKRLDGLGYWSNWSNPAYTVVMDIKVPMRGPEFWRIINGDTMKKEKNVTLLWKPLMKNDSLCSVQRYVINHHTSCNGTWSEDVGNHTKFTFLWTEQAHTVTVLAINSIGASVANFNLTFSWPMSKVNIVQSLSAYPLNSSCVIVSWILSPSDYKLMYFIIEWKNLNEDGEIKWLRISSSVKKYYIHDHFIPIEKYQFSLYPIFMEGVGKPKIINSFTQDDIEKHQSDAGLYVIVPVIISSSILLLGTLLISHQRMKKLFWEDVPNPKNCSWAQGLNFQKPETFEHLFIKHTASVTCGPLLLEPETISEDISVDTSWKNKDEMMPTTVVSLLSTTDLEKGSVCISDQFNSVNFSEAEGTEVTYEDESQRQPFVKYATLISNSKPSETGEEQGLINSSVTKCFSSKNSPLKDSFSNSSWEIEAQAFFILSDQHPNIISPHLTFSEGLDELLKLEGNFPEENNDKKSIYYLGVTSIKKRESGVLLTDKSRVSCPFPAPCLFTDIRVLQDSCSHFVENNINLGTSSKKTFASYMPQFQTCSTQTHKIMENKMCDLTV",
  "test": "pERK induction (AlphaLISA p-ERK1/2) in HEK293-STAT3Luc-hLepR1 cells",
  "format": "cell-based",
  "procedure": "Antibodies were tested for the ability to induce phosphorylation of extracellular-signal-related kinase (pERK) in HEK293-STAT3Luc-hLepR1 cells. To measure pERK induction, cells were first cultured overnight at 37° C. in 96-well plate with DMEM medium supplemented with 10% FBS. On day 2, medium was removed, cells were washed in serum-free DMEM and incubated for an additional 24-hour in serum-free DMEM. On day 3, medium was removed and 1:4 series dilutions of antibodies A, B, and C with top concentration of 200nM in serum-free DMEM were added to the cells for 15 minutes. Testing was run in duplicates. Recombinant human leptin protein (SEQ ID NO:27) was used as a positive control in this assay. An IgGI with Fc modifications to ablate binding to Fcγ receptors was used as a negative control (IgG isotype control). Phospho-ERK1/2 was assessed in the whole cell lysate by measuring the amplified luminescence with AlphaLISA SureFire Ultra p-ERK1/2 (Thr202/Tyr204) kit (PerkinElmer, #ALSU-PERK-A-HV). Data was calculated using 4 parameters sigmoidal fit of the data (SigmaPlot software). Results, expressed in Table 12 are averaged EC50 of two independent experiments.",
  "data": [
    {"substance": "human leptin: recombinant human leptin protein (SEQ ID NO:27), positive control", "values": [
      {"measurement": "Baseline RLU", "setting": "pERK AlphaLISA", "value": 29762.5, "unit": "RLU"},
      {"measurement": "Maximum RLU", "setting": "pERK AlphaLISA", "value": 137565, "unit": "RLU"},
      {"measurement": "EC50", "setting": "pERK, 15 minutes, average of two independent experiments, read-out: EC50 (nM) ± STDEV", "value": 1.07, "unit": "nM"}
    ]}
  ]
}
